Sequences and labels used below:
B1: Retinoblastoma-associated protein (Homo sapiens), P06400 (parent)
chain: MPPKTPRKTAATAAAAAAEPPAPPPPPPPEEDPEQDSGPEDLPLVRLEFEETEEPDFTALCQKLKIPDHVRERAWLTWEKVSSVDGVLGGYIQKKKELWGICIFIAAVDLDEMSFTFTELQKNIEISVHKFFNLLKEIDTSTKVDNAMSRLLKKYDVLFALFSKLERTCELIYLTQPSSSISTEINSALVLKVSWITFLLAKGEVLQMEDDLVISFQLMLCVLDYFIKLSPPMLLKEPYKTAVIPINGSPRTPRRGQNRSARIAKQLENDTRIIEVLCKEHECNIDEVKNVYFKNFIPFMNSLGLVTSNGLPEVENLSKRYEEIYLKNKDLDARLFLDHDKTLQTDSIDSFETQRTPRKSNLDEEVNVIPPHTPVRTVMNTIQQLMMILNSASDQPSENLISYFNNCTVNPKESILKRVKDIGYIFKEKFAKAVGQGCVEIGSQRYKLGVRLYYRVMESMLKSEEERLSIQNFSKLLNDNIFHMSLLACALEVVMATYSRSTSQNLDSGTDLSFPWILNVLNLKAFDFYKVIESFIKAEGNLTREMIKHLERCEHRIMESLAWLSDSPLFDLIKQSKDREGPTDHLESACPLNLPLQNNHTAADMYLSPVRSPKKKGSTTRVNSTANAETQATSAFQTQKPLKSTSLSLFYKKVYRLAYLRLNTLCERLLSEHPELEHIIWTLFQHTLQNEYELMRDRHLDQIMMCSMYGICKVKNIDLKFKIIVTAYKDLPHAVQETFKRVLIKEEEYDSIIVFYNSVFMQRLKTNILQYASTRPPTLSPIPHIPRSPYKFPSSPLRIPGGNIYISPLKSPYKISEGLPTPTKMTPRSRILVSIGESFGTSEKFQKINQMVCNSDRVLKRSAEGSNPPKPLKKLRFDIEGSDEADGSKHLPGESKFQQKLAEMTSTRTRMQKQKMNDSMDTSNKEEK

In experiment [1] the parent is B1. The settings on record: with e2f1_human E2F1, Q01094.
Variants of B1 are the subject of experiment [2]. The following applies: with ve7_hpv16 E7, P03129.
Variants of B1 are the subject of experiment [3]. The following applies: with e2f1_human E2F1, Q01094. This is another data set of the same source.
Experiment [4] covers variants of B1. The following applies: with ve7_hpv16 E7, P03129. The source holds these as a separate data set.

ve7_hpv16 E7, P03129, sequence (P03129 whole entry): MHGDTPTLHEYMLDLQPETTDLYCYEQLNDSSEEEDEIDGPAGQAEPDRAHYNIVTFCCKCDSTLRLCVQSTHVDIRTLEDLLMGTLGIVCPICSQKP
e2f1_human E2F1, Q01094, sequence (Q01094 whole entry): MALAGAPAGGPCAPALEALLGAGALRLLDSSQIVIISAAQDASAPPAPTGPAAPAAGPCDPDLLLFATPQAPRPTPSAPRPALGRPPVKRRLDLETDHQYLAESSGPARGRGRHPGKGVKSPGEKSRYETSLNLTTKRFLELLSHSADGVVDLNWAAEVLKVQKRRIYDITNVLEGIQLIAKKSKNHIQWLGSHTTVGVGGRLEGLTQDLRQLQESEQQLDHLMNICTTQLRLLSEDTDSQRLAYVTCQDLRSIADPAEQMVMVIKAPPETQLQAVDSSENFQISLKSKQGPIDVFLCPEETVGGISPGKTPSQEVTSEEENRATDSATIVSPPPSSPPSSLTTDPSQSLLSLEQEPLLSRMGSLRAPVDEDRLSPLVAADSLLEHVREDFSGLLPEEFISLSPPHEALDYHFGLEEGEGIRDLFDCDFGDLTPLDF

For V754G, the “effect of a mutation on the interaction” value in experiment [1] and in experiment [2] was “decreasing interaction strength” in each case.
Take S751Y: the “effect of a mutation on the interaction” value in experiment [1] is “decreasing interaction strength”; in experiment [3] it was “disrupting interaction strength”; in experiment [2] it was “disrupting interaction strength”.
As for S751C, the “effect of a mutation on the interaction” value in experiment [1] was “decreasing interaction strength”; in experiment [3], “disrupting interaction strength”; in experiment [2], “decreasing interaction strength”.
Regarding R621C, the “effect of a mutation on the interaction” value in experiment [3] and in experiment [2] was “decreasing interaction strength” throughout.
T738I: the “effect of a mutation on the interaction” value was “decreasing interaction strength” in experiment [1], “disrupting interaction strength” in experiment [3], “decreasing interaction strength” in experiment [2] and “disrupting interaction strength” in experiment [4].
For the variant M761L, the figures for the “effect of a mutation on the interaction” value in experiment [1] and in experiment [2] were “decreasing interaction strength” and “increasing interaction strength”, respectively.
In the same order, the values of R763T are “decreasing interaction strength” and “decreasing interaction strength”.
In the same order, the values of R741H are “decreasing interaction strength” and “decreasing interaction strength”.
In the same order, the values of R741S are “decreasing interaction strength” and “decreasing interaction strength”.
Regarding R741C, the “effect of a mutation on the interaction” value in experiment [1] and in experiment [2] was “decreasing interaction strength” each time.
With M704V, the “effect of a mutation on the interaction” value is “decreasing interaction strength” in experiment [1], “disrupting interaction strength” in experiment [3] and “decreasing interaction strength” in experiment [2].
Take I703F: the “effect of a mutation on the interaction” value in experiment [1] was “decreasing interaction strength”; in experiment [3], “disrupting interaction strength”; in experiment [2], “decreasing interaction strength”; in experiment [4], “disrupting interaction strength”.
Regarding I703V, the “effect of a mutation on the interaction” value is “decreasing interaction strength” in experiment [1], “disrupting interaction strength” in experiment [3] and “decreasing interaction strength” in experiment [2].
